Measured values reported in US8754031B2, “Use of prolactin receptor antagonists in combination with an agent that inactivates the HER2/neu signaling pathway” (Oncolix, Inc., priority 2004, dated 2014).

How the values were obtained:
[1] = test system: human breast cancer cell lines MDA-MB-134, T-47D, BT-474 and MCF-7; assay: TUNEL assay, apoptosis by DNA fragmentation in breast cancer cell lines; format: cell-based
Description: The human breast cancer cell lines MDA-MB-134, T-47D, BT-474 and MCF-7 were obtained from ATCC. These breast cancer cell lines were chosen based on their PRLR levels. The cell line T-47D had the highest PRLR level followed by MDA-MB-134, BT-474, MCF-7 in decreasing order of PRLR levels (Peirce S and Chen W Y., 2001, J. Endocrinol. 171:R1-4).
T-47D cells obtained from ATCC were grown in RPMI 1640 (phenol red free), supplemented with 10% FBS (GIBCO BRL). BT-474 cells were grown in RPMI 1640 medium (phenol red free) supplemented with 10% FBS and ATCC recommended supplements. MCF-7 cells were grown in DMEM medium (phenol red free), supplemented with 10% FBS. The cells were grown at 37° C. in a humid atmosphere in the presence of 5% CO2. The MDA-MB-134 cells were grown in Leibovitz's L-15 medium supplemented with 20% FBS and grown in CO2 free atmosphere. The breast cancer cells were trypsinized (0.02% Trypsin—EDTA) and grown in their respective media (phenol red free) supplemented with 10% CSS (Charcoal stripped serum) for a week. Subsequently the cells were trypsinized again and plated onto an 8 chambered slide system (Lab Tek II) at a confluence of 60-70% per chamber. The next day treatments were performed on the breast cancer cells using their respective media (phenol red free), supplemented with 1% CSS. The MDA-MB-134 VI cells were grown in phenol red containing medium, but with the same serum conditions as the other breast cancer cells.
(§1) Terminal deoxynucleotidyl transferase mediated dUTP nick end labeling (TUNEL) assay. Nicks of the fragmented DNA are labeled at their 3-OH ends. The fluorescein-labeled dUTP is incorporated at the 3-OH ends by using the enzyme terminal deoxynucleotidyl transferase. After the assigned period of treatment the chambers were dismantled as per the manufacturer's instructions and the TUNEL assay (Apoptosis detection system, Fluorescein-Promega) was performed as per the manufacturer's instructions. The slide was examined under a FITC filter using an Olympus IX 70 microscope system.

T47D cells = assay: Cell proliferation assay (cell counting), comparison with estrogen and tamoxifen; format: cell-based, human
Description: Cell proliferation assays. hPRLA was tested for its ability to inhibit breast cancer cell proliferation in tissue culture. The human breast cancer cells were grown in corresponding culture media according to ATCC recommendations. Cells were maintained at 37° C. in a humidified atmosphere of 5% CO2 in air. The assay conditions were essentially as described by Ginsburg and Vonderharr (Cancer Res., 55:2591-2595 (1995)). For individual growth experiments, cells were plated in 12 well culture plates at a density of approximately 2×10^4/ml, 1 ml/well. Cells were then allowed to attach for one day (T-47D, MCF-7, HTB19, and HTB20 cells, except for HTB 123, which is a suspension cells), then the overlying media was removed and changed to serum-free conditions with media containing ITS (insulin-transferring-selenium-BSA-linoleic acid culture supplement; Collaborative Research Bedford, Mass.). Varying concentrations of hPRL alone or in combination with hPRLA were introduced. After an additional three days in culture, cells were harvested after brief trypsinization and counted in a cell counter.
For certain experiments, a mixed cell culture assay was used. In this assay, breast cancer cells were co-cultured with expressor cells which had been transfected with nucleic acid encoding PRL or a PRL variant and expressing those recombinant proteins. By varying the number of expressor cells, the amount of PRL or PRL variant present in the mixed cell culture was increased or decreased. A fixed number of breast cancer cells (T47D) were added to wells of a multi-well cell culture plate. In certain wells, which served as a control, no expresser cells were added. Then, increasing numbers of expresser cells (transfected L cells expressing either HPRL (L-PRL) or hPRLA (L-PRLA)) were added to breast cancer cell-containing wells to create mixed cultures. The same numbers of expressor cells were cultured in parallel (without T47D cells) to serve as controls. After culturing under standard conditions for a period of time, the number of cells present in the wells was counted, and the number of L cells in the corresponding control culture was subtracted. The resulting number could then be compared to the number of T47D cells in the T47D control culture to evaluate the effects of the recombinant product on breast cancer cell proliferation.

[2] = in vivo
prostate cancer cells = assay: TUNEL assay, apoptosis in prostate cancer cells; format: cell-based; conditions: two prostate cancer cells, 250 ng, 24 hours
Description: as §1
The samples were in duplicate and each sample constituted about 2 million cells.

[3] = test system: Stat5a/b phosphorylation in T-47D cells; assay: Inhibition of phosphorylation of Stat5a/b, Western blot; format: cell-based, human; conditions: 48 hours, 10 μg, in the presence of hPRL 100 ng/ml (FIG. 6)
Description: FIG. 6. […] T-47D cells were cultured overnight at 60% confluency and were maintained in phenol red-free and serum-free RPMI-1640 for 72 hours before stimulation. […] Lane A is the control cells that are untreated. […] Activation of Stat5 was analyzed by WB with anti-phospho-specific antibodies in 50 μg protein extracts.

HER2 = HER2 phosphorylation, immunoprecipitation and Western blot (Example 11); format: cell-based, human; conditions: multiple breast cancer cells
Description: Human PRL signals via cell surface specific receptors that lead to JAK2/STAT/MAPK activation, which ultimately promotes cell proliferation. Phosphorylation of HER2 protein is a crucial step in the activation of its downstream signaling molecules such as Ras/MAPK cascade.
Immunoprecipitation experiments confirm the role of hPRL and G129R in regulation of phosphorylation of HER2 in multiple breast cancer cell lines. A panel of breast cancer cell lines with different levels of hPRLR and HER2 are treated with different doses of PRL (from ng/ml to ug/ml to establish a dose response curve) and terminated at the various time points (from 15 min to 24 hr to establish response time course). The optimal stimulatory dose and the response time courses are determined for each cell lines. Anti-HER2 antibody is used to immunoprecipitate HER2 in cell lysates and anti-phospho-HER2 antibody is used (Western blot) to identify the level of phosphorylated Her2 in response to the treatment.

T-47D cells = assay: Cell proliferation, ViaCount reagent and Guava PCA cytometer (viable cells); format: cell-based, human; conditions: 24 hours of treatment, G129R 1 μg/ml, HERCEPTIN 20 μg/ml (FIG. 3)
Description: FIG. 3. […] The y-axis represents percent viable cells after each treatment.
This assay permits the determination of the number of total and viable cells in cultures. Cell proliferation was determined as a measure of the number of viable cells after 24 hours of treatment (FIG. 3).

[4] = Preclinical safety in animals; format: in vivo; conditions: mice and rabbits, even at high doses
Description: Previously, the inventors developed a hPRLR antagonist, G129R. G129R is prolactin with a single amino acid substation; the glycine at position 129 of the native sequence is replaced with an arginine. G129R has anti-tumor effects in cultured human breast cancer cells and in nude mouse models.

[5] = test system: STAT5 phosphorylation in T-47D human breast cancer cells; assay: hPRL induction of tyrosine phosphorylation of STAT5 protein; format: cell-based
Description: Assay of hPRL induction of tyrosine phosphorylation of STAT5 protein. […] Tyrosyl phosphorylation of STAT 5 is a receptor mediated event and is thought to be an important step in ligand-induced signal transduction (Wakao et al., EMBO J., 13:2182-2191 (1994); Kazansky et al., Mol. Endocrinol., 9:1598-1609 (1995); Waxman et al., J. Biol. Chem., 270:13262-13270 (1995)). This assay was used to evaluate the ability of hPRL and hPRLA to inhibit induction of STAT 5 phosphorylation by wild type PRL.
Briefly, human breast cancer cells were plated in 12-well plates. After pre-incubation in serum-free DMEM for 2-3 hours, the cells were exposed to various concentration of hPRL and hPRLA in serum-free DMEM. […]

For `CC/C(=C(\c1ccc(O)cc1)c1ccc(OCCN(C)C)cc1)c1ccccc1` [4-OH-Tamoxifen, reference compound], the “apoptosis, DNA fragmentation” value ([1]; T-47D, MCF-7 or BT-474 cells, concentration as high as 1 μM) was “did not induce apoptosis”.

For `CC/C(=C(\c1ccccc1)c1ccc(OCCN(C)C)cc1)c1ccccc1` [tamoxifen, reference compound], the “proliferation of T47D cells relative to untreated control cultures” value (T47D cells) was “comparable inhibitory effect”.

In the case of estrogen [reference compound], the “proliferation of T47D cells relative to untreated control cultures” value (T47D cells) is reported as “increased proliferation”.

B1: G129R: hPRLR antagonist: prolactin in which the glycine at position 129 of the native sequence is replaced with an arginine (protein)
chain: LPICPGGAARCQVTLRDLFDRAVVLSHYIHNLSSEMFSEFDKRYTHGRGFITKAINSCHTSSLATPEDKEQAQQMNQKDFLSLIVSILRSWNEPLYHLVTEVRGMQEAPEAILSKAVEIEEQTKRLLERMELIVSQVHPETKENEIYPVWSGLPSLQMADEESRLSAYYNLLHCLRRDSHKIDNYLKLLKCRIIHNNNC
For B1, the “proliferation of T47D cells relative to untreated control cultures” value (T47D cells) was “comparable inhibitory effect”, the half-life [2] was 1 to 2 h and the “apoptosis detected by TUNEL assay” value (prostate cancer cells) was “underwent apoptosis”. For the same molecule, the “apoptosis, DNA fragmentation” value ([1]; 250 ng, 24 hours treatment, all four PRLR positive breast cancer cell lines) was “induced apoptosis”, the “DNA fragmentation in breast cancer cells” value ([1]; after 2 hours of treatment, 50 ng/ml) was “apparent” and the “inhibition of Stat5a/b phosphorylation” value [3] was “inhibitory effect”. For the same molecule, the “phosphorylation of HER2” value (HER2) was “able to specifically block HER2 phosphorylation”, the “decrease in proliferative ability / cell number compared to untreated control cells” value (T-47D cells) was 21.5% and the safety in animals [4] was “safe”. For the same molecule, the “block of hPRL-induced phosphorylation of STAT5 proteins” value [5] was “able to block the signal transduction induced by hPRL”.

B2: hPRL: human prolactin, wild type hormone, used as positive control and stimulus (protein)
chain: LPICPGGAARCQVTLRDLFDRAVVLSHYIHNLSSEMFSEFDKRYTHGRGFITKAINSCHTSSLATPEDKEQAQQMNQKDFLSLIVSILRSWNEPLYHLVTEVRGMQEAPEAILSKAVEIEEQTKRLLEGMELIVSQVHPETKENEIYPVWSGLPSLQMADEESRLSAYYNLLHCLRRDSHKIDNYLKLLKCRIIHNNNC
With B2 the “proliferation of T47D cells relative to untreated control cultures” value (T47D cells) was “increased proliferation” and the “phosphorylation of HER2” value (HER2) was “able to phosphorylate HER2”.
